Measurements: US20110281938

Columns and labels:
[1] = target: TFPI (source and species not stated; Examples 8, 12 and 45), P10646
[2] = target: Recombinant human TFPI purified from a cell line from Novo Nordisk

Chain of TFPI (source and species not stated; Examples 8, 12 and 45), P10646 (P10646 whole entry, looked up): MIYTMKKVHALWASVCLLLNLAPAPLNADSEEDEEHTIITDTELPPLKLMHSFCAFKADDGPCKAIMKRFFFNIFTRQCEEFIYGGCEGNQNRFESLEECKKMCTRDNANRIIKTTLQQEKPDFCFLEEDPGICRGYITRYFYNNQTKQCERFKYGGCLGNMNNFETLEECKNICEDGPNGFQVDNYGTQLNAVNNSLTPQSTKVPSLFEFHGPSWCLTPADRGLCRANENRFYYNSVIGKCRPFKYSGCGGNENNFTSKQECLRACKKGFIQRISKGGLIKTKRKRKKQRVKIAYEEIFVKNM

B1: Factor Xa (FXa) (protein)
chain 1: ANSFLEEMKKGHLERECMEETCSYEEAREVFEDSDKTNEFWNKYKDGDQCETSPCQNQGKCKDGLGEYTCTCLEGFEGKNCELFTRKLCSLDNGDCDQFCHEEQNSVVCSCARGYTLADNGKACIPTGPYPCGKQTLER
chain 2: IVGGQECKDGECPWQALLINEENEGFCGGTILSEFYILTAAHCLYQAKRFKVRVGDRNTEQEEGGEAVHEVEVVIKHNRFTKETYDFDIAVLRLKTPITFRMNVAPACLPERDWAESTLMTQKTGIVSGFGRTHEKGRQSTRLKMLEVPYVDRNSCKLSSSFIITQNMFCAGYDTKQEDACQGDSGGPHVTRFKDTYFVTGIVSWGEGCARKGKYGIYTKVTAFLKWIDRSMKTRGLPKAKSHAPEVITSSPLK
- FXa cleavage of chromogenic substrate S-2765, substrate added last, 1 nM FXa [1]: In the presence of ≧8 nM TFPI, inhibition is nearly complete under these conditions and little product is formed

B2: tissue factor:FVIIa complex (TF:FVIIa) (protein)
chain 1: SGTTNTVAAYNLTWKSTNFKTILEWEPKPVNQVYTVQISTKSGDWKSKCFYTTDTECDLTDEIVKDVKQTYLARVFSYPAGNVESTGSAGEPLYENSPEFTPYLETNLGQPTIQSFEQVGTKVNVTVEDERTLVRRNNTFLSLRDVFGKDLIYTLYYWKSSSSGKKTAKTNTNEFLIDVDKGENYCFSVQAVIPSRTVNRKSTDSPVECMGQEKGEFREIFYIIGAVVFVVIILVIILAISLHKCRKAGVGQSWKENSPLNVS
chain 2: ANAFLEELRPGSLERECKEEQCSFEEAREIFKDAERTKLFWISYSDGDQCASSPCQNGGSCKDQLQSYICFCLPAFEGRNCETHKDDQLICVNENGGCEQYCSDHTGTKRSCRCHEGYSLLADGVSCTPTVEYPCGKIPILEKRNASKPQGRIVGGKVCPKGECPWQVLLLVNGAQLCGGTLINTIWVVSAAHCFDKIKNWRNLIAVLGEHDLSEHDGDEQSRRVAQVIIPSTYVPGTTNHDIALLRLHQPVVLTDHVVPLCLPERTFSERTLAFVRFSLVSGWGQLLDRGATALELMVLNVPRLMTQDCLQQSRKVGDSPNITEYMFCAGYSDGSKDSCKGDSGGPHATHYRGTWYLTGIVSWGQGCATVGHFGVYTRVSQYIEWLQKLMRSEPRPGVLLRAPFP
- TF:FVIIa activity, hydrolysis of fluorogenic substrate SN-17c, 8 nM TFPI [1]: TFPI inhibited approximately 50% of TF:FVIIa activity under these conditions

B3: extrinsic Xase: re-lipidated recombinant human tissue factor (Innovin) with factor VIIa (Enzyme Research Laboratories) (protein)
chain 1: SGTTNTVAAYNLTWKSTNFKTILEWEPKPVNQVYTVQISTKSGDWKSKCFYTTDTECDLTDEIVKDVKQTYLARVFSYPAGNVESTGSAGEPLYENSPEFTPYLETNLGQPTIQSFEQVGTKVNVTVEDERTLVRRNNTFLSLRDVFGKDLIYTLYYWKSSSSGKKTAKTNTNEFLIDVDKGENYCFSVQAVIPSRTVNRKSTDSPVECMGQEKGEFREIFYIIGAVVFVVIILVIILAISLHKCRKAGVGQSWKENSPLNVS
chain 2: ANAFLEELRPGSLERECKEEQCSFEEAREIFKDAERTKLFWISYSDGDQCASSPCQNGGSCKDQLQSYICFCLPAFEGRNCETHKDDQLICVNENGGCEQYCSDHTGTKRSCRCHEGYSLLADGVSCTPTVEYPCGKIPILEKRNASKPQGRIVGGKVCPKGECPWQVLLLVNGAQLCGGTLINTIWVVSAAHCFDKIKNWRNLIAVLGEHDLSEHDGDEQSRRVAQVIIPSTYVPGTTNHDIALLRLHQPVVLTDHVVPLCLPERTFSERTLAFVRFSLVSGWGQLLDRGATALELMVLNVPRLMTQDCLQQSRKVGDSPNITEYMFCAGYSDGSKDSCKGDSGGPHATHYRGTWYLTGIVSWGQGCATVGHFGVYTRVSQYIEWLQKLMRSEPRPGVLLRAPFP
- FXa generation by the extrinsic Xase (chromogenic FXa substrate), 2 nM TFPI [2]: curve #6 shows that TFPI shuts down Xa generation in the absence of ARC19499
